Numbered stars: 1 amine (or outer) side, 2 acyl side, 3 side chain; on linkers, the order of the positions; unused ones are H or OH. Bridge positions count the residues as written; N and C are the ends. Square brackets hold non-standard residues; d marks the D form. Side chains are listed from the residue outwards. Ends that are not written are not given here. * marks the point of attachment. C18 diacid = O=C(O)CCCCCCCCCCCCCCCCC(=O)*; γGlu = O=C(O)[C@H](CCC(=O)[*:2])N[*:1]; Aib = CC(C)(N)C(=O)O
T1: human calcitonin receptor (human, UniProt P30988 25-474)
T1 sequence (looked up): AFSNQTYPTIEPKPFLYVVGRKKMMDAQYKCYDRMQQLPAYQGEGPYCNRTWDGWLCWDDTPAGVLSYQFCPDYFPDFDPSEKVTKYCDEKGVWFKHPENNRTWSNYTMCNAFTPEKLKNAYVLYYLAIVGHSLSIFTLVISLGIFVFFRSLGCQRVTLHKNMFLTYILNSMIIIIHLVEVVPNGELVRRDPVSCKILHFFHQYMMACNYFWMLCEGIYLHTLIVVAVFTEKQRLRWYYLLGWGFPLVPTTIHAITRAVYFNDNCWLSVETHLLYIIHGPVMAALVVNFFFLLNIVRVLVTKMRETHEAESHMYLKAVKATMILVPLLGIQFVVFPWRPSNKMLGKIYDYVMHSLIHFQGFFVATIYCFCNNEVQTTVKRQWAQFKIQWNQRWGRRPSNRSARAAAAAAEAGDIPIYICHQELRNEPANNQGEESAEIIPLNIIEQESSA

T2: human amylin receptor (calcitonin receptor co-expressed with receptor activity modifying protein, RAMP3) (human, UniProt P30988 25-474; O60896 24-148)
T2 sequence (looked up) 1: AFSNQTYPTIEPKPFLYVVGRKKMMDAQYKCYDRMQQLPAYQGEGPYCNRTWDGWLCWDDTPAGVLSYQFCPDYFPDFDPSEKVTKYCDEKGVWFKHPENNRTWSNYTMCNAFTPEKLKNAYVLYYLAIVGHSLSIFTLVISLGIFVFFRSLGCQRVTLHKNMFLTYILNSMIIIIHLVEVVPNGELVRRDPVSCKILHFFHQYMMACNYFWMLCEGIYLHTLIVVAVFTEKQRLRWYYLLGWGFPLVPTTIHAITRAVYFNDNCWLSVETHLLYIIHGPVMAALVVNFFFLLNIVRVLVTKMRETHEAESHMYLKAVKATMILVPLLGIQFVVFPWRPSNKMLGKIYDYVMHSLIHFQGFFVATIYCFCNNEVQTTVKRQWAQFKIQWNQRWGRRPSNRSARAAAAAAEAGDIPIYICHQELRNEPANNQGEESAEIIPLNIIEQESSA
T2 sequence (looked up) 2: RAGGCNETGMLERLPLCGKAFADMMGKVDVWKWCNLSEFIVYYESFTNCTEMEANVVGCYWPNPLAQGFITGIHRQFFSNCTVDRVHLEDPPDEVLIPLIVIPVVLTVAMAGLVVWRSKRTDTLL


Legend:
[1] = molecular target: T1, human calcitonin receptor; assay: cell-based or functional assay
[2] = molecular target: T2, human amylin receptor (calcitonin …); assay: cell-based or functional assay

| EC50 (cAMP production) [1] [pM] | EC50 (cAMP production) [2] [pM] | Ratio (EC50 hCTR / EC50 hAMYR3) [2] | Binder |
| --- | --- | --- | --- |
| 362 | 109 | 3 | K([γGlu-C18 diacid])KCNTATCATQRLAHFLVHSS[Aib]NFGPILPPTNVGSNTY-NH2 (disulfide 3-8; N-terminus assumed; SMILES CC[C@H](C)[C@H](NC(=O)[C@@H]1CCCN1C(=O)CNC(=O)[C@H](Cc1ccccc1)NC(=O)[C@H](CC(N)=O)NC(=O)C(C)(C)NC(=O)[C@H](CO)NC(=O)[C@H](CO)NC(=O)[C@H](Cc1c[nH]cn1)NC(=O)[C@@H](NC(=O)[C@H](CC(C)C)NC(=O)[C@H](Cc1ccccc1)NC(=O)[C@H](Cc1c[nH]cn1)NC(=O)[C@H](C)NC(=O)[C@H](CC(C)C)NC(=O)[C@H](CCCNC(=N)N)NC(=O)[C@H](CCC(N)=O)NC(=O)[C@@H](NC(=O)[C@H](C)NC(=O)[C@@H]1CSSC[C@H](NC(=O)[C@H](CCCCN)NC(=O)[C@@H](N)CCCCNC(=O)CC[C@H](NC(=O)CCCCCCCCCCCCCCCCC(=O)O)C(=O)O)C(=O)N[C@@H](CC(N)=O)C(=O)N[C@@H]([C@@H](C)O)C(=O)N[C@@H](C)C(=O)N[C@@H]([C@@H](C)O)C(=O)N1)[C@@H](C)O)C(C)C)C(=O)N[C@@H](CC(C)C)C(=O)N1CCC[C@H]1C(=O)N1CCC[C@H]1C(=O)N[C@H](C(=O)N[C@@H](CC(N)=O)C(=O)N[C@H](C(=O)NCC(=O)N[C@@H](CO)C(=O)N[C@@H](CC(N)=O)C(=O)N[C@H](C(=O)N[C@@H](Cc1ccc(O)cc1)C(N)=O)[C@@H](C)O)C(C)C)[C@@H](C)O) [Peptide 46 (SEQ ID NO: 46)] |
| 468 | 218 | 2 | K([γGlu-C18 diacid])KCNTATCATQRLAHFLVHSS[Aib]NFGPILPPTNVGSETY-NH2 (disulfide 3-8; N-terminus assumed; SMILES CC[C@H](C)[C@H](NC(=O)[C@@H]1CCCN1C(=O)CNC(=O)[C@H](Cc1ccccc1)NC(=O)[C@H](CC(N)=O)NC(=O)C(C)(C)NC(=O)[C@H](CO)NC(=O)[C@H](CO)NC(=O)[C@H](Cc1c[nH]cn1)NC(=O)[C@@H](NC(=O)[C@H](CC(C)C)NC(=O)[C@H](Cc1ccccc1)NC(=O)[C@H](Cc1c[nH]cn1)NC(=O)[C@H](C)NC(=O)[C@H](CC(C)C)NC(=O)[C@H](CCCNC(=N)N)NC(=O)[C@H](CCC(N)=O)NC(=O)[C@@H](NC(=O)[C@H](C)NC(=O)[C@@H]1CSSC[C@H](NC(=O)[C@H](CCCCN)NC(=O)[C@@H](N)CCCCNC(=O)CC[C@H](NC(=O)CCCCCCCCCCCCCCCCC(=O)O)C(=O)O)C(=O)N[C@@H](CC(N)=O)C(=O)N[C@@H]([C@@H](C)O)C(=O)N[C@@H](C)C(=O)N[C@@H]([C@@H](C)O)C(=O)N1)[C@@H](C)O)C(C)C)C(=O)N[C@@H](CC(C)C)C(=O)N1CCC[C@H]1C(=O)N1CCC[C@H]1C(=O)N[C@H](C(=O)N[C@@H](CC(N)=O)C(=O)N[C@H](C(=O)NCC(=O)N[C@@H](CO)C(=O)N[C@@H](CCC(=O)O)C(=O)N[C@H](C(=O)N[C@@H](Cc1ccc(O)cc1)C(N)=O)[C@@H](C)O)C(C)C)[C@@H](C)O) [Peptide 47 (SEQ ID NO: 47)] |

Source: patent publication US20220204580A1 (AstraZeneca / MedImmune, published 2022)
